This assay deals with LPS-induced release of endogenous TNFα from human THP-1 macrophage cells. Briefly: ELISA-based TNFα release assay, IC50 determination (Example 12). The class given is cell-based. As to conditions: titration 80.00 to 0.08 μg/ml final; LPS 50 ng/ml, 3 hours. The protocol: Expanding the functional analyses, ELISA-based TNFα release assays were performed to determine the half maximal inhibitory concentration (IC50) for the purified antibody 4H8-E3 of the invention on LPS-induced release of endogenous TNFα from human THP-1 macrophage cells.
In brief, on day 1, Nunc black MaxiSorp® 96-well plates (Thermo Fisher Scientific, USA) were coated overnight with 100 μl per well of mouse anti-human TNFα capture antibody (provided as part of the DuoSet ELISA kit) at 4 μg/ml TBS at 4° C. On day 2, the capture antibody solution was removed and MaxiSorp® plates were blocked with 300 μl per well of TBS, 1% BSA at room temperature for 3 hours. […] Using an infinite M1000 PRO (Tecan Group, Switzerland) microplate reader, the fluorescence of each well was collected at an excitation wavelength of 435 nm and an emission wavelength of 555 nm.
(In general: An ELISA detects its analyte on a solid surface through an enzyme-linked reagent.)

B1: 4H8-E3: Mouse IgM monoclonal antibody against the human iRhom2 juxtamembrane domain adjacent to TMD1; HC VD SEQ ID NO 33, LC VD SEQ ID NO 40 (antibody, V domains shown)
VH: EVQLQQSGPELVKPGASVKISCKASGYTFTDYYMNWVKQSHGKSLEWIGDINPNNGGTSYNQKFKGKATLTVDKSSNTAYMEFRSLTSEDSAVYYCARRGYYGVDYWGQGTTLTVSS
VL: NIVMTQSPKSMSMSVGERVTLNCKASENVGTYVSWYQQKPEQSPKLLIFGASNRYTGVPDRFIGSGFATDFTLTISSVQAEDLADYHCGQSYSYPYTFGGGTKLEIK
modifications: IgM constant regions; antibody sequence
Regarding B1, the “inhibition of TNFα release from THP-1 cells on titration” value is given as “concentration-dependent inhibition”.

For the origin of these results see patent US20220204610A1, “PROTEIN BINDERS FOR IRHOM2” (NEW YORK SOCIETY FOR THE RELIEF OF THE RUPTURED AND …, priority 2019, published 2022).
